Experimental data as given in publication PMC10502012, “Molecular basis of TASL recruitment by the peptide/histidine transporter 1, PHT1” (Nature Communications, 2023).

Biological target: chicken PHT1 (purified, wild type) (chicken)
Sequence (chain, as listed by the source): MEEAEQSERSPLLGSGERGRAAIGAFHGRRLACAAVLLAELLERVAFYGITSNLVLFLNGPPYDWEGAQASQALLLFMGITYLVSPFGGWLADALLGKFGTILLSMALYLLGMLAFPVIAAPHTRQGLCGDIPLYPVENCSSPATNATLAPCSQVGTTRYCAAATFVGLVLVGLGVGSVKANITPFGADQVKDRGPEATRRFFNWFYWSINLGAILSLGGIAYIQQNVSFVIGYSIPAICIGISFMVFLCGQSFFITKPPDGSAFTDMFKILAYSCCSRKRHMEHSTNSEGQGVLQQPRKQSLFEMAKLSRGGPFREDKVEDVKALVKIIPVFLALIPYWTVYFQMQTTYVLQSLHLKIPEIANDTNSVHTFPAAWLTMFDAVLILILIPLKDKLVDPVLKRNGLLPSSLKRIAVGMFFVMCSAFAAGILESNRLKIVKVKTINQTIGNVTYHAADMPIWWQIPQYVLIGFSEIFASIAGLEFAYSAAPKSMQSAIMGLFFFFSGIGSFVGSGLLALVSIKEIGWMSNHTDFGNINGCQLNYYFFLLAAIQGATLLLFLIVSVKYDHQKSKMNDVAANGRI

| Binder | binding result |
| --- | --- |
| 25 [Sybody 25] (VHH) VHH: QVQLVESGGGSVQAGGSLRLSCAASGNIWDIRYLGWFRQAPGKEREGVAALETQYGYTYYADSVKGRFTVSLDNAKNTVYLQMNSLKPEDTALYYCAAADIGYYTPLIHVGWYSYWGQGTQVTVSA | binds |
| 80 (VHH) VHH: QVQLVESGGGSVQAGGSLRLSCAASGSISSITYLGWFRQAPGKEREGVAALFTWWGWTYYADSVKGRFTVSLDNAKNTVYLQMNSLKPEDTALYYCAAASEGMYWPLTKNHYSYWGQGTQVTVSA | binds |
| 89 (VHH) VHH: QVQLVESGGGLVQAGGSLRLSCAASGFSVNYSYMYWYRQAPGKEREWVAAISSWGWYTVYADSVKGRFTISRDNAKNTVYLQMNSLKPEDTAVYYCNVKDRGNDDSSYDYWGQGTQVTVSA | binds |
| 87 (VHH) VHH: QVQLVESGGGLVQAGGSLRLSCAASGFPVVHLSMAWYRQAPGKEREWVAAINSFGDHTHYADSVKGRFTISRDNAKNTVYLQMNSLKPEDTAVYYCNVKDSGWFWTQYDYWGQGTQVTVSA | binds |
| 100 (VHH) VHH: QVQLVESGGGLVQAGGSLRLSCAASGFPVAQRVMHWYRQAPGKEREWVAAIHSAGAQTFYADSVKGRFTISRDNAKNTVYLQMNSLKPEDTAVYYCNVKDDGKYYWLYDYWGQGTQVTVSA | binds |
| 20 [Sybody 20] (VHH) VHH: QVQLVESGGGSVQAGGSLRLSCAASGNIWTIRYLGWFRQAPGKEREGVAALDTASGSTYYADSVKGRFTVSLDNAKNTVYLQMNSLKPEDTALYYCAAAWWGYTVPLMWQHYYYWGQGTQVTVSA | binds |
| 3 [Sybody 3] (VHH) VHH: QVQLVESGGGLVQAGGSLRLSCAASGFPVWAAYMFWYRQAPGKEREWVAAIGSTGWYTRYADSVKGRFTISRDNAKNTVYLQMNSLKPEDTAVYYCHVKDAGWNWWAYDYWGQGTQVTVSA | binds |
| 101 (VHH) VHH: QVQLVESGGGLVQAGGSLRLSCAASGFPVWATYMYWYRQAPGKEREWVAAIGSTGWFTVYADSVKGRFTISRDNAKNTVYLQMNSLKPEDTAVYYCNVKDRGWQTAQYDYWGQGTQVTVSA | binds |
| 44 [Sybody 44] (VHH) VHH: QVQLVESGGGLVQAGGSLRLSCAASGFPVDATSMYWYRQAPGKEREWVAAINSTGWYTEYADSVKGRFTISRDNAKNTVYLQMNSLKPEDTAVYYCNVKDYGWYYWAYDYWGQGTQVTVSA | binds |
| 88 (VHH) VHH: QVQLVESGGGLVQAGGSLRLSCAASGFPVWHSYMYWYRQAPGKEREWVAAIGSTGWYTTYADSVKGRFTISRDNAKNTVYLQMNSLKPEDTAVYYCNVKDQGWIHKQYDYWGQGTQVTVSA | binds |
| 19 [Sybody 19] (VHH) VHH: QVQLVESGGGSVQAGGSLRLSCAASGNIHAINYLGWFRQAPGKEREGVAALDTWVGYTYYADSVKGRFTVSLDNAKNTVYLQMNSLKPEDTALYYCAAAEWGWQGPLKMRAYEYWGQGTQVTVSA | binds |
| 48 [Sybody 48] (VHH) VHH: QVQLVESGGGLVQAGGSLRLSCAASGFPVRWHYMYWYRQAPGKEREWVAAISSHGTYTYYADSVKGRFTISRDNAKNTVYLQMNSLKPEDTAVYYCSVKDIGRWFSKYDYWGQGTQVTVSA | binds |
| 94 (VHH) VHH: QVQLVESGGGLVQAGGSLRLSCAASGFPVYKASMYWYRQAPGKEREWVAAINSKGWWTEYADSVKGRFTISRDNAKNTVYLQMNSLKPEDTAVYYCNVKDYGYEQLWYDYWGQGTQVTVSA | binds |
| 55 (VHH) VHH: QVQLVESGGGLVQAGGSLRLSCAASGFPVAARWMRWYRQAPGKEREWVAAINSFGDYTEYADSVKGRFTISRDNAKNTVYLQMNSLKPEDTAVYYCNVKDYGSQWWAYDYWGQGTQVTVSA | binds |
| 58 (VHH) VHH: QVQLVESGGGLVQAGGSLRLSCAASGFPVWTRWMRWYRQAPGKEREWVAAINSYGDYTEYADSVKGRFTISRDNAKNTVYLQMNSLKPEDTAVYYCNVRDNGAYWHYYDYWGQGTQVTVSA | binds |
| 57 (VHH) VHH: QVQLVESGGGLVQAGGSLRLSCAASGFPVKQKWMRWYRQAPGKEREWVAAINSNGDYTEYADSVKGRFTISRDNAKNTVYLQMNSLKPEDTAVYYCNVRDYGDQLFEYDYWGQGTQVTVSA | binds |
| 66 (VHH) VHH: QVQLVESGGGLVQAGGSLRLSCAASGFPVDTSYMYWYRQAPGKEREWVAAIWSWGQWTYYADSVKGRFTISRDNAKNTVYLQMNSLKPEDTAVYYCAVYVGQYYIGQGTQVTVSA | binds |
| 31 [Sybody 31] (VHH) VHH: QVQLVESGGGLVQAGGSLRLSCAASGFPVSQNWMWWYRQAPGKEREWVAAISSKGQTTHYADSVKGRFTISRDNAKNTVYLQMNSLKPEDTAVYYCNVKDWGAYWYSYDYWGQGTQVTVSA | binds |
| 6 [Sybody 6] (VHH) VHH: QVQLVESGGGLVQAGGSLRLSCAASGFPVYATWMYWYRQAPGKEREWVAAISSTGWSTYYADSVKGRFTISRDNAKNTVYLQMNSLKPEDTAVYYCNVKDVGFWWDQYDYWGQGTQVTVSA | binds |
| 2 [Sybody 2] (VHH) VHH: QVQLVESGGGLVQAGGSLRLSCAASGFPVNTRTMHWYRQAPGKEREWVAAIYSSGQNTFYADSVKGRFTISRDNAKNTVYLQMNSLKPEDTAVYYCNVKDWGNIWEYDYWGQGTQVTVSA | binds |
| 30 [Sybody 30] (VHH) VHH: QVQLVESGGGLVQAGGSLRLSCAASGFPVKSRRMYWYRQARGKEREWVAAIYSWGATTVYADSVKGRFTISRDNAKNTVYLQMNSLKPEDTAIYYCNVKDWGSWYQYYDYWGQGTQVTVSA | binds |
| 24 [Sybody 24] (VHH) VHH: QVQLVESGGGSVQAGGSLRLSCAASGAIERIWYLGWFRQAPGKEREGVAALITFTGHTYYADSVKGRFTVSLDNAKNTVYLQMNSLKPEDTALYYCAAAYDGWFSPLTTRRYRYWGQGTQVTVSA | binds |
| 1 [Sybody 1] (VHH) VHH: QVQLVESGGGLVQAGGSLRLSCAASGFPVYSRHMYWYRQAPGKEREWVAAIASQGMKTWYADSVKGRFTISRDNAKNTVYLQMNSLKPEDTAVYYCNVKDTGQWWGLYDYWGQGTQVTVSA | binds |
| 23 [Sybody 23] (VHH) VHH: QVQLVESGGGSAQAGGSLRLSCAASGNIAHIYYLGWFRQAPGKEREGVAALMTFTGWTYYADSVKGRFTVSLDNAKNTVYLQMNSLKPEDTALYYCAAATHGNWNPLQSDRYQYWGQGTQVTVSA | binds |
